In IntAct's records for PubMed 12679340:

Molecular target: otc_yeast ARG3 (UniProt P05150)
Sequence (P05150 whole entry): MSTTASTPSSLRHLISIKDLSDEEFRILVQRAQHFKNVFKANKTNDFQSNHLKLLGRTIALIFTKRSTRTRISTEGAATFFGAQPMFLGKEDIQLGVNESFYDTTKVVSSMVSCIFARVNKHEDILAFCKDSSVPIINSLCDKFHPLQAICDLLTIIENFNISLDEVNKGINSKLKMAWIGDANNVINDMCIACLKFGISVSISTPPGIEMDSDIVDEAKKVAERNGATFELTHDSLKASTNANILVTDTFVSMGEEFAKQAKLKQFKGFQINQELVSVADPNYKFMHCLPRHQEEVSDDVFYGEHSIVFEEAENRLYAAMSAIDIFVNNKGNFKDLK

Sequence of Arginase (Saccharomyces cerevisiae), P00812 C321R;C326T (P00812 whole entry C321R/C326T): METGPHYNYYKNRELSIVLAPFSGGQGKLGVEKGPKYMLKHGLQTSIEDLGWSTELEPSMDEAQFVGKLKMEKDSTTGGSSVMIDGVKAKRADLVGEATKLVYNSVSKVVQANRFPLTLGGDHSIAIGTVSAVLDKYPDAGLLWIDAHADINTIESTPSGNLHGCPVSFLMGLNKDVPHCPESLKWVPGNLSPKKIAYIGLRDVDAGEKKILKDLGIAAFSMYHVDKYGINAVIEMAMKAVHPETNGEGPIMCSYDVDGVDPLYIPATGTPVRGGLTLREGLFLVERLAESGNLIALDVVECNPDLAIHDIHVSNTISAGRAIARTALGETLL

effect of a mutation on the interaction: decreasing interaction
Substance: Arginase (Saccharomyces cerevisiae), P00812 C321R;C326T
